Test results as given in US20050176101.

What was measured:
[1] = molecular target: T1, His-tagged human Abl kinase domain G227-V515 coexpressed with PTP1b phosphatase domain (pET-SPEC BI-PTP Abl G227-V515-X), unphosphorylated
T1 chain: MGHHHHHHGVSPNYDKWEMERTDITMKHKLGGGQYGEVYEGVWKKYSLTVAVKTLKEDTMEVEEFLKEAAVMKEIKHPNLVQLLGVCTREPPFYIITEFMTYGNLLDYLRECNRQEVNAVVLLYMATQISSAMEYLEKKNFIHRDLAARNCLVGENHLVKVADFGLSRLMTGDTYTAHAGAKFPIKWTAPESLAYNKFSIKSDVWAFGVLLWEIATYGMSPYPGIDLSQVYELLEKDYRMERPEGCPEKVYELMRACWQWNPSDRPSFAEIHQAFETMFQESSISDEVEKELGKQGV

[2] = molecular target: His-tagged human c-MET kinase domain constructs (various lengths) coexpressed with PTP1B from pET-N6 BI-PTP, unphosphorylated

B1: human PTP1b phosphatase domain, residues Met 1 to Gly 283 (protein)
chain: MEMEKEFEQIDKSGSWAAIYQDIRHEASDFPCRVAKLPKNKNRNRYRDVSPFDHSRIKLHQEDNDYINASLIKMEEAQRSYILTQGPLPNTCGHFWEMVWEQKSRGVVMLNRVMEKGSLKCAQYWPQKEEKEMIFEDTNLKLTLISEDIKSYYTVRQLELENLTTQETREILHFHYTTWPDFGVPESPASFLNFLFKVRESGSLSPEHGPVVVHCSAGIGRSGTFCLADTCLLLMDKRKDPSSVDIKKVLLEMRKFRMGLIQTADQLRFSYLAVIEGAKFIMG
state of phosphorylation detectable with PY20 anti-phospho-Tyr antibody (Western blot) [1]: the Abl coexpressed with PTP1B has little or no phosphorylation above background, whereas Abl coexpressed alone is highly phosphorylated | state of phosphorylation (methods as described for the Abl kinase domain) [2]: When expressed alone the MET was phosphorylated and when coexpressed with PTP1B the MET was unphosphorylated
